Molecular target: ubiquitin (monoUb), P0CG48
Assay: NMR titration; NZF domain added to 15N-labeled monoUb or diUb; BEST-TROSY, chemical shift perturbation; NMR PBS (18 mM Na2HPO4, 7 mM NaH2PO4 pH 7.2, 150 mM NaCl), 298 K

NANKWSCHMCTYLNWPRAIRCTQCLSQRRT (domain or fragment, modifications not checked) [TRABID NZF2]
Kd: 1000 µM

RTQHWTCSVCTYENWAKAKRCVVCDHPRPN (domain or fragment, modifications not checked) [TRABID NZF3]
Kd: 540 µM

From article PMC4386031
